Experimental findings from patent US20030186329A1, “Use of substrate subtraction libraries to distinguish enzyme specificities” (The Scripps Research Institute, priority 1998, published 2003) are described below.

In general, Km refers to the concentration of substrate that gives half-maximal velocity.

Type in all cases: biochemical
The target of test [1] is T1, t-PA (Homo sapiens, UniProt P00750). In words: Kinetics of cleavage of synthetic peptides by t-PA (HPLC, Eadie-Hofstee analysis). The following applies: for Km / kcat, t-PA: hydrolysis of peptide by t-PA; for t-PA:u-PA Selectivity: ratio of kcat/Km for peptide hydrolysis, t-PA over u-PA. On the procedure: (§1) Concentrations of functional t-PA and u-PA were measured by active site titration with 4-methylumbelliferyl p-guanidinobenzoate (Jameson, G., et al., (1973) Biochem. J. 131, 107-117) using a Perkin-Elmer LS 50B Luminescence Fluorometer as previously described (Madison, E. L., et al., (1995) J. Biol. Chem. 270: 7558-7562). In addition, the enzymes were titrated with a standard PAI-1 preparation that had been previously titrated against a trypsin primary standard. Total enzyme concentrations were measured by ELISA.
(§2) Individual phage stocks were prepared and digested with no enzyme, t-PA, u-PA, or u-PA in the presence of 1 mM amiloride, a specific inhibitor of u-PA. Kinetic-data were obtained by incubating various concentrations of peptide with a constant enzyme concentration to achieve between 5 and 20% cleavage of the peptide in each reaction. For assays with u-PA, enzyme concentration was either 815 or 635 nM. For assays with t-PA enzyme concentration was 700 nM. […] The buffer used in these assays has been described (Madison, E. L., et al., 1995). Reactions were stopped by addition of triflouroacetic acid to 0.33% or by freezing on dry ice. Cleavage of the 13 and 14 residue peptides was monitored by reverse phase HPLC as described (Madison, E. L., et al., 1995). The 4-6 residue peptides were acylated at their amino termini and amidated at their carboxyl termini. Cleavage of the 4-6 residue peptides was monitored by hydrophilic interaction HPLC chromatography (HILIC) (Alpert, A. J. (1990) J. Chromatog. 499, 177-196.) using a polyhydroxyaspartamine column from PolyLC (Columbia, Md.). Buffer A was 50 mM triethylamine phosphate in 10% acetonitrile and buffer B was 10 mM triethylamine phosphate in 80% acetonitrile. Peptides were eluted by a gradient which was varied from 100% Buffer B to 100% Buffer A during a 13 minute interval. The percent of cleaved peptide was calculated by dividing the area under the product peaks by the total area under substrate and product peaks. For all peptides containing multiple basic residues, mass spectral analysis of products confirmed that cleavage occurred at a single site and identified the scissile bond. Data were interpreted by Eadie-Hofstee analysis. Errors were determined as described (Taylor, J. R., 1982) An introduction to error analysis. The study of uncertainties in physical measurements. University Science Books, Mill Valley, Calif.) and were <25%.
(§3) Kinetic data were obtained by incubating various concentrations of peptide with a constant enzyme concentration to achieve between 5 and 20% cleavage of the peptide in each reaction as described in Example 1.

Test [2] concerns the target T2, u-PA (Homo sapiens, UniProt P00749).
T2 construct: purchased Jack Henkin (Abbott Laboratories)
In words: Kinetics of cleavage of synthetic peptides by u-PA (HPLC, Eadie-Hofstee analysis). The following applies: hydrolysis of peptide by u-PA. The method, then:
as §1, §2, §3

Test [3] deals with u-PA. The description is as above. The following applies: ratio of kcat/Km for peptide hydrolysis, u-PA over t-PA. The method, then:
as §1, §2, §3

Test [4] addresses T1, t-PA. The experiment in a line: Dot blot assay of digestion of individual substrate phage stocks by t-PA. The following applies: for selectivity of substrate phage for t-PA or u-PA: digestion by t-PA and u-PA; for digestion of phage stock by t-PA: loss of antibody epitopes. The method, then: (§4) To verify that the substrate subtraction library had yielded substrates that were preferentially cleaved by t-PA, digestion of individual phage stocks by t-PA and u-PA was analyzed by a dot blot assay that was performed as previously described (Ding, L., et al., 1995; Smith, M. M., et al., 1995) (FIG. 3). Loss of positive staining indicates loss of antibody epitopes from the phage due to proteolytic cleavage of the random hexamer region.
(§5) In general, with the exception of the screening protocol, procedures followed were those used in Example 1. Digestion of the phage was performed using enzyme concentrations varying from 2-10 μg/ml and incubation times varying from 0.5-10 hours. Phage precipitation and dot blot analysis were performed as described in Example 1. Individual phage stocks were prepared and digested with no enzyme, t-PA, u-PA, or u-PA in the presence of 1 mM amiloride, a specific inhibitor of u-PA′ for periods of time varying from 15 minutes to 10 hours. Individual reaction mixtures were spotted onto a nitrocellulose filter using a dot blotter apparatus (BioRad). The filter was probed with MAb 3E-7 and developed using the Amersham Western ECL kit. Loss of positive staining indicates loss of antibody epitopes from the phage due to proteolytic cleavage of the randomized hexamer region.

Test [5] addresses T2, u-PA. The experiment in a line: Dot blot assay of digestion of individual substrate phage stocks by u-PA. Conditions: loss of antibody epitopes. The method, then:
as §4
as §5, with “The filter was probed with MAb 3E-7 and developed using the Amersham Western ECL kit. Loss of positive staining indicates loss of antibody epitopes from the phage due to proteolytic cleavage of the randomized hexamer region.” left out
Two changes were made in the experimental protocol to examine the P3 and P2 preferences of u-PA. […] Although this semi-quantitative assay cannot provide kinetic constants, it can provide an accurate rank ordering of the lability of the substrate phage clones.

T1 sequence (P00750 36-562): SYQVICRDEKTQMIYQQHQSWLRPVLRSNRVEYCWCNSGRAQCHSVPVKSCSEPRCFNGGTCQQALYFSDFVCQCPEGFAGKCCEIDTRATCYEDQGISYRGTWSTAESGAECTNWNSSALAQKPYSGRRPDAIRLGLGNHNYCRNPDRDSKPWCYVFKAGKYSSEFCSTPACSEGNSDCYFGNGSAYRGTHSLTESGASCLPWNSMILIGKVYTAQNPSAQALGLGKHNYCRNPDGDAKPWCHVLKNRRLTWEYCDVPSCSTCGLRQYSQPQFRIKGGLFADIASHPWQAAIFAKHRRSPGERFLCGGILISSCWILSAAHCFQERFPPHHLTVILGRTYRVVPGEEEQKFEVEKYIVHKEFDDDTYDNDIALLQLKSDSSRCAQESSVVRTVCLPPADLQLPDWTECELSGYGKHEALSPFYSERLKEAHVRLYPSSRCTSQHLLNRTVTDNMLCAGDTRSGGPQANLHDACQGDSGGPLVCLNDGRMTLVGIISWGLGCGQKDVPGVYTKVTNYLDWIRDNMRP

For “GSGK↓S (GSGKS; listed as Homo sapiens) [XVIII]”, in the test with t-PA [1], the Km amounted to 44 mM and the “kcat, t-PA” value stood at 0.07 s⁻¹. Besides, in the test with u-PA [2], the Michaelis-Menten constant (Km) was 4.25 mM and the “kcat, u-PA” value is 0.82 s⁻¹. Further, the “u-PA:t-PA Selectivity” value with u-PA [3] is recorded as “approximately 120”.

Consider “LGGSGR↓KASLSLE (LGGSGRKASLSLE; listed as Homo sapiens) [XIV]”, for which, in the test with t-PA [1], the Km is 5.1 mM and the “kcat, t-PA” value worked out at 0.168 s⁻¹. For the same substance, in the test with u-PA [2], the Km was 1.13 mM and the “kcat, u-PA” value was found to be 1.14 s⁻¹.

For the substance FRGRAA [Phage 7], the “selectivity of substrate phage for t-PA or u-PA” value at t-PA [4] is recorded as “t-PA selective substrate”.

For “LGGSGR↓SATRDLE (LGGSGRSATRDLE; listed as Homo sapiens) [XIII]”, in the test with t-PA [1], the Km came to 1.5 mM and the “kcat, t-PA” value turned out to be 0.068 s⁻¹. For the same substance, in the test with u-PA [2], the Km is 0.733 mM and the “kcat, u-PA” value came to 0.54 s⁻¹.

As for “SGR↓SA (SGRSA; listed as Homo sapiens) [XVI]”, in the test with t-PA [1], the Km turned out to be 40 mM and the “kcat, t-PA” value was determined as 2.4 s⁻¹. Besides, in the test with u-PA [2], the Km came to 3.1 mM and the “kcat, u-PA” value turned out to be 3.7 s⁻¹.

As to “FRGR↓K (FRGRK; listed as Homo sapiens) [VII]”, the “t-PA:u-PA Selectivity” value in the test with t-PA [1] is “approximately 74”.

Take “SGK↓S (SGKS; listed as Homo sapiens) [XVII]”: in the test with t-PA [1], the Km is 28 mM; the “kcat, t-PA” value came out at 0.19 s⁻¹; the “t-PA:u-PA Selectivity” value was determined as 0.04. In the test with u-PA [2], the Michaelis-Menten constant (Km) amounted to 7.9 mM and the “kcat, u-PA” value was 1.22 s⁻¹.

Regarding RIARRA [Substrate phage 51], the “digestion of phage stock by t-PA” value at t-PA [4] is “substrate of both t-PA and u-PA”. For the same substance, the “digestion of phage stock by u-PA” value on u-PA [5] is “substrate of both t-PA and u-PA”.

Take “PGRVVG [Control phage PL, reference compound]”: the “digestion of phage stock by t-PA” value on t-PA [4] is on record as “not digested by either enzyme”. The “digestion of phage stock by u-PA” value at u-PA [5] was “not digested by either enzyme”.

Take RSANAI [Phage 33]: the “selectivity of substrate phage for t-PA or u-PA” value at t-PA [4] is “u-PA selective substrate”.

For the substance “SGR↓S (SGRS; listed as Homo sapiens) [XV]”, in the test with t-PA [1], the Km is 15 mM; the “kcat, t-PA” value is 5.0 s⁻¹; the “t-PA:u-PA Selectivity” value is 0.30. Moreover, in the test with u-PA [2], the Km worked out at 2.1 mM and the “kcat, u-PA” value was found to be 2.3 s⁻¹.
